From US20170355771A1 (Biogen, published 2017)

Columns and labels:
[1] = target: T1, GPIIb/IIIa (SEQ ID NOs: 23 and 24) (human, UniProt P08514 32-994; P05106 27-716); test: Bio-Layer Interferometry (OctetRed), monovalent format, yeast-purified Fab; apparent monovalent affinity
T1 construct: also called GPIIb/IIIa complex
Procedure: (§1) BLI was performed on the OctetRed94 instrument, manufactured by ForteBio, according to standard procedures.

[2] = target: T1, GPIIb/IIIa (SEQ ID NOs: 23 and 24); test: Bio-Layer Interferometry (OctetRed), monovalent format, yeast-purified Fab; apparent dissociation rate Kdis
Procedure: as §1

T1 sequence (P08514 32-994 limits assumed, chain 1 of 2): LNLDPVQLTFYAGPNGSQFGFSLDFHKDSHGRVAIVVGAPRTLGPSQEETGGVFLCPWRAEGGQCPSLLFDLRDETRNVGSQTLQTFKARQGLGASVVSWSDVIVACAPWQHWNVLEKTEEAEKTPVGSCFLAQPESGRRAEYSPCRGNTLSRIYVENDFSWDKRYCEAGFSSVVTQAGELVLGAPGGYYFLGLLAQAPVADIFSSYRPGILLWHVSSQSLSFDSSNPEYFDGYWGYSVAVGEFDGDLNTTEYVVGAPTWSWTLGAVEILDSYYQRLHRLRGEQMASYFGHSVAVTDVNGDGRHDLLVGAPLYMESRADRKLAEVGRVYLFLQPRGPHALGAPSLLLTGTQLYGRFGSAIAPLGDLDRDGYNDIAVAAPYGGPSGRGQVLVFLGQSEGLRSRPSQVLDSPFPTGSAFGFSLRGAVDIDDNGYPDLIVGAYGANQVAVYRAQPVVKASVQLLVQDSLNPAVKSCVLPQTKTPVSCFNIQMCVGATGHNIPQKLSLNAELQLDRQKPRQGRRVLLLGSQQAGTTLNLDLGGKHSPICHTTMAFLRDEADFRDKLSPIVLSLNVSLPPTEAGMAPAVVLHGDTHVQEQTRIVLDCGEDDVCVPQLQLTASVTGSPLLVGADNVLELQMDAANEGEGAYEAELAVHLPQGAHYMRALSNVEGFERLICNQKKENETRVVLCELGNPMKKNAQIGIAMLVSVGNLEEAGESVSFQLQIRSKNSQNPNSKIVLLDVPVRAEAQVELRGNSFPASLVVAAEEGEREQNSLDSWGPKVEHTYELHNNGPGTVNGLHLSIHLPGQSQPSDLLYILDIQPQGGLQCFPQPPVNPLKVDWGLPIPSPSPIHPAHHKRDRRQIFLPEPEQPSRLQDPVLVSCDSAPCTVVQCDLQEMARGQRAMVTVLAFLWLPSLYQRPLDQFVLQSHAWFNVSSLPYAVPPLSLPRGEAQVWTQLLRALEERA
T1 sequence (P05106 27-716 limits assumed, chain 2 of 2): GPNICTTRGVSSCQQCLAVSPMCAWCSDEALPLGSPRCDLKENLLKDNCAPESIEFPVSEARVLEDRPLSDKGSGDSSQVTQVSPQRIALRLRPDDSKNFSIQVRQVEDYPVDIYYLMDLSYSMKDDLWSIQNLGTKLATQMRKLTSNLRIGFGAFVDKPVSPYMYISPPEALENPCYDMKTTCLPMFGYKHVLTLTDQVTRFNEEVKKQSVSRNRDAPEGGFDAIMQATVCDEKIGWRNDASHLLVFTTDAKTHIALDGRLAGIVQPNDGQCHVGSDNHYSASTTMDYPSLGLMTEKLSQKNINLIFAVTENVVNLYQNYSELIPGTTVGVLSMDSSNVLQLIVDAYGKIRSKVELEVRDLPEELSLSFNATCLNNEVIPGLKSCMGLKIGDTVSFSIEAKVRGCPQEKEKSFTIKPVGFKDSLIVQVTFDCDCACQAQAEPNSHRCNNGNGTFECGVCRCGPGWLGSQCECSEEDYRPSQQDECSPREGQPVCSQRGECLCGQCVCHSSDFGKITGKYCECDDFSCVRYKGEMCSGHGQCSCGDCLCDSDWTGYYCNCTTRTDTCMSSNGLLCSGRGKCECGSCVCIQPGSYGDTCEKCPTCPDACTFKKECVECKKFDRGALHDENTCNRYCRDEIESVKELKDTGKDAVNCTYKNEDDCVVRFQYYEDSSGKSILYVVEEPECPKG

B1: affinity matured h34D10 Fab VH100/VL0 (Fab, V domains shown)
VH: EVQLVESGGGLVKPGGSLRLSCAASGFTFGAYAMSWVRQAPGKGLVWVASISSGGTTYYPDSVKRQFTISRDNAKNTLYLQMNSLRAEDTAVYYCTRGGDYSYALDYWGQGTLVTVSS
VL: EIVMTQSPATLSVSPGERATLSCRASSSVNYMYWYQQKPGQAPRLLIYYTSNLAPGIPARFSGSGSGTEFTLTISSLQSEDFAVYYCQQFSSSPWTFGQGTKVEIK
notes: Yeast-expressed, protein A purified, then made into Fab
[1]
  Kd: 29 nM
[2]
  koff: 0.00822 s⁻¹

B2: affinity matured h34D10 Fab VH101/VL0 (Fab, V domains shown)
VH: EVQLVESGGGLVKPGGSLRLSCAASGFTFSAYAMSWVRQAPGKGLVWVASISSGGTTYYPDSVERQFTISRDNAKNTLYLQMNSLRAEDTAVYYCTRGGDYSYALDYWGQGTLVTVSS
VL: EIVMTQSPATLSVSPGERATLSCRASSSVNYMYWYQQKPGQAPRLLIYYTSNLAPGIPARFSGSGSGTEFTLTISSLQSEDFAVYYCQQFSSSPWTFGQGTKVEIK
notes: Yeast-purified Fab
[1]
  Kd: 25 nM
[2]
  koff: 0.00836 s⁻¹

B3: affinity matured h34D10 Fab VH102/VL0 (Fab, V domains shown)
VH: EVQLVESGGGLVKPGGSLRLSCAASGFTFSAYAMSWVRQAPGKGLVWVASISSGGTTYYPDSVKRQFTISRDNAKNTLYLQMNSLRAEDTAVYYCTRGGDYSYALDYWGQGTLVTVSF
VL: EIVMTQSPATLSVSPGERATLSCRASSSVNYMYWYQQKPGQAPRLLIYYTSNLAPGIPARFSGSGSGTEFTLTISSLQSEDFAVYYCQQFSSSPWTFGQGTKVEIK
notes: Yeast-purified Fab
[1]
  Kd: 36 nM
[2]
  koff: 0.00977 s⁻¹

B4: affinity matured h34D10 Fab VH103/VL0 (Fab, V domains shown)
VH: EVQLVESGGGLVKPGGSLRLSCAASGFTFSAYAMSWVRQAPGKGLVWVASISSGGTTYYPDSVKRQFTISRDNAKNTLYLQVNSLRAEDTAVYYCTRGGDYSYALDYWGQGTLVTVSS
VL: EIVMTQSPATLSVSPGERATLSCRASSSVNYMYWYQQKPGQAPRLLIYYTSNLAPGIPARFSGSGSGTEFTLTISSLQSEDFAVYYCQQFSSSPWTFGQGTKVEIK
notes: Yeast-purified Fab
[1]
  Kd: 37 nM
[2]
  koff: 0.0103 s⁻¹

B5: affinity matured h34D10 Fab VH104/VL0 (Fab, V domains shown)
VH: EVQLVESGGGLVKPGGSLRLSCAASGFTFSAYAMSWVRQAPGKGLVWVASISSGGTTYYPDSVKRQFTISRDNAKNTLYLQMNSLRAEDTAVYYCTRGGDYSYALDYWGRGTLVTVSS
VL: EIVMTQSPATLSVSPGERATLSCRASSSVNYMYWYQQKPGQAPRLLIYYTSNLAPGIPARFSGSGSGTEFTLTISSLQSEDFAVYYCQQFSSSPWTFGQGTKVEIK
notes: Yeast-purified Fab
[1]
  Kd: 31 nM
[2]
  koff: 0.0113 s⁻¹

B6: affinity matured h34D10 Fab VH105/VL0 (Fab, V domains shown)
VH: EVQLVESGGGLVKPGGSLRLSCAASGFTFSAYAMSWVRQAPGKGLVWVASISSGGTTYYPDSVKRQFTISRDNAKNTLYLQMNSLRAEDTAVYYCTRGGDYSYALDYWGQGTLVTVSS
VL: EIVMTQSPATLSVSPGERATLSCRASSSVNYMYWYQQKPGQAPRLLIYYTSNLAPGIPARFSGSGSGTEFTLTISSLQSEDFAVYYCQQFSSSPWTFGQGTKVEIK
notes: Yeast-purified Fab
[1]
  Kd: 42 nM
[2]
  koff: 0.0114 s⁻¹

B7: affinity matured h34D10 Fab VH106/VL0 (Fab, V domains shown)
VH: EVQLVECGGGLVKPGGSLRLSCAASGFTFSAYAMSWVRQAPGKGLVWVASISSGGTTYYPDSVKRQFTISRDNAKNTLYLQMNSLRAEDTAVYYCTRGGDYSYALDYWGQGTLVTVSS
VL: EIVMTQSPATLSVSPGERATLSCRASSSVNYMYWYQQKPGQAPRLLIYYTSNLAPGIPARFSGSGSGTEFTLTISSLQSEDFAVYYCQQFSSSPWTFGQGTKVEIK
notes: Yeast-purified Fab
[1]
  Kd: 44 nM
[2]
  koff: 0.0127 s⁻¹

B8: affinity matured h34D10 Fab VH107/VL0 (Fab, V domains shown)
VH: EVQLVESGGGLVKPGESLRLSCAASGFTFSAYAMSWVRQAPGEGLVWVASISSGGTTYYPDSVKRQFTISRDNAKNTLYLQMNSLRAEDTAVYYCTRGGDYSYALDYWGQGTLVTVSS
VL: EIVMTQSPATLSVSPGERATLSCRASSSVNYMYWYQQKPGQAPRLLIYYTSNLAPGIPARFSGSGSGTEFTLTISSLQSEDFAVYYCQQFSSSPWTFGQGTKVEIK
notes: Yeast-purified Fab
[1]
  Kd: 48 nM
[2]
  koff: 0.0142 s⁻¹

B9: affinity matured h34D10 Fab VH108/VL0 (Fab, V domains shown)
VH: EVQLVESGGGLVKPGGSLRLSCAASGFTFSAYAMSWVRQAPGKGLVWVASISSDGTTYYPDSVKRQFTISRDNARNTLYLQMNSLRAEDTAVYYCTRGGDYSYALDYWGQGTLVTVSS
VL: EIVMTQSPATLSVSPGERATLSCRASSSVNYMYWYQQKPGQAPRLLIYYTSNLAPGIPARFSGSGSGTEFTLTISSLQSEDFAVYYCQQFSSSPWTFGQGTKVEIK
notes: Yeast-purified Fab
[1]
  Kd: 49 nM
[2]
  koff: 0.0193 s⁻¹

B10: affinity matured h34D10 Fab VH109/VL0 (Fab, V domains shown)
VH: EVQLVESGGGLVKPGGSLRLSCAASGFTFSAYAMSWVRQAPGKGLVWVASISSGGTTDYPDSVKRQFTISRDNAKNTLYLQMNSLRAEDTAVYYCTRGGDYGYALDYWGQGTLVTVSS
VL: EIVMTQSPATLSVSPGERATLSCRASSSVNYMYWYQQKPGQAPRLLIYYTSNLAPGIPARFSGSGSGTEFTLTISSLQSEDFAVYYCQQFSSSPWTFGQGTKVEIK
notes: Yeast-purified Fab
[1]
  Kd: 120 nM
[2]
  koff: 0.031 s⁻¹

B11: affinity matured h34D10 Fab VH110/VL0 (Fab, V domains shown)
VH: EVQLVESGGGLVKPGGSLRLSCAASGFTFNAYAMSWVRQAPGKGLVWVASISSGGTTYYPDSVKRQFTISRDNAKNTLYLQMNSLRAEDTAVYYCTRGGDYGYALDYWGQGTLVTVSS
VL: EIVMTQSPATLSVSPGERATLSCRASSSVNYMYWYQQKPGQAPRLLIYYTSNLAPGIPARFSGSGSGTEFTLTISSLQSEDFAVYYCQQFSSSPWTFGQGTKVEIK
notes: Yeast-purified Fab
[1]
  Kd: 130 nM
[2]
  koff: 0.0337 s⁻¹

B12: affinity matured h34D10 Fab VH111/VL0 (Fab, V domains shown)
VH: EVQLVESGGGLVKPGGSLRLSCAASGFTFNAYAMSWVRQAPGEGLVWVASISSGGTTYYPDSVKRQFTISRDNAKNTLYLQMNSLRAEDTAVYYCTRGGDYGYALDYWGQGTLVTVSS
VL: EIVMTQSPATLSVSPGERATLSCRASSSVNYMYWYQQKPGQAPRLLIYYTSNLAPGIPARFSGSGSGTEFTLTISSLQSEDFAVYYCQQFSSSPWTFGQGTKVEIK
notes: Yeast-purified Fab
[1]
  Kd: 150 nM
[2]
  koff: 0.0352 s⁻¹

B13: affinity matured h34D10 Fab VH112/VL0 (Fab, V domains shown)
VH: EVQLVESGGGLVKPGGSLRLSCAASGFTFSAYAMSWVRQAPGEGLVWVAGISSGGTTYYPDSVKRQFTISRDNAKNTLYLQMNSLRAEDTAVYYCTRGGDYGYALDYWGQGTLVTVSS
VL: EIVMTQSPATLSVSPGERATLSCRASSSVNYMYWYQQKPGQAPRLLIYYTSNLAPGIPARFSGSGSGTEFTLTISSLQSEDFAVYYCQQFSSSPWTFGQGTKVEIK
notes: Yeast-purified Fab
[1]
  Kd: 160 nM
[2]
  koff: 0.0352 s⁻¹

B14: affinity matured h34D10 Fab VH113/VL0 (Fab, V domains shown)
VH: EVQLVESGGGLVKPGGSLRLSCAASGFTFSAYAMSWVRQAPGKGLVWVAGISSGGTTYYPDSVKRQFTISRDNAKNTLYLQMNSLRAEDTAVYYCTRGGDYGYALDYWGQGTLVTVSS
VL: EIVMTQSPATLSVSPGERATLSCRASSSVNYMYWYQQKPGQAPRLLIYYTSNLAPGIPARFSGSGSGTEFTLTISSLQSEDFAVYYCQQFSSSPWTFGQGTKVEIK
notes: Yeast-purified Fab
[1]
  Kd: 160 nM
[2]
  koff: 0.0372 s⁻¹

B15: affinity matured h34D10 Fab VH114/VL0 (Fab, V domains shown)
VH: EMQLVESGGGLVKPGGSLRLSCAASGFTFSAYAMSWVRQAPGKGLVWVASISSGGTTYYPDSVKRQFTISRDNAKNTLYLQMNSLRAEDTAVYYCTRGGDYGYALDYWGQGTLVTVSS
VL: EIVMTQSPATLSVSPGERATLSCRASSSVNYMYWYQQKPGQAPRLLIYYTSNLAPGIPARFSGSGSGTEFTLTISSLQSEDFAVYYCQQFSSSPWTFGQGTKVEIK
notes: Yeast-purified Fab
[1]
  Kd: 130 nM
[2]
  koff: 0.0393 s⁻¹

B16: affinity matured h34D10 Fab VH115/VL0 (Fab, V domains shown)
VH: GVQLVESGGGLVKPGGSLRLSCAASGFTFSAYAMSWVRQAPGKGLVWVASISSGGTTYYPDSVKRQFTISRDDAKNTLYLQMNSLRAEDTAVYYCTRGGDYGYALDYWGQGTLVTVSS
VL: EIVMTQSPATLSVSPGERATLSCRASSSVNYMYWYQQKPGQAPRLLIYYTSNLAPGIPARFSGSGSGTEFTLTISSLQSEDFAVYYCQQFSSSPWTFGQGTKVEIK
notes: Yeast-purified Fab
[1]
  Kd: 120 nM
[2]
  koff: 0.0429 s⁻¹

B17: affinity matured h34D10 Fab VH116/VL0 (Fab, V domains shown)
VH: EVQLVESGGGLVKPGGSLRLSCAASGFTFSAYAMSWVRQAPGKGLVWVASISSGGTTYYPDSVKRQFTISRDDAKNTLYLQMNSLRAEDTAVYYCTRGGDYGYALDYWGQGTLVTVSS
VL: EIVMTQSPATLSVSPGERATLSCRASSSVNYMYWYQQKPGQAPRLLIYYTSNLAPGIPARFSGSGSGTEFTLTISSLQSEDFAVYYCQQFSSSPWTFGQGTKVEIK
notes: Yeast-purified Fab
[1]
  Kd: 130 nM
[2]
  koff: 0.0432 s⁻¹

B18: affinity matured h34D10 Fab VH117/VL0 (Fab, V domains shown)
VH: EAQLVESGGGLVKPGGSLRLSCAASGFTFSAYAMSWVRQAPGKGLVWVASISSGGTTYYPDSVKRQFTISRDNAKNTLYLQMNSLRAEDTAVYYCTRGGDYGYALDYWGQGTLVTVSS
VL: EIVMTQSPATLSVSPGERATLSCRASSSVNYMYWYQQKPGQAPRLLIYYTSNLAPGIPARFSGSGSGTEFTLTISSLQSEDFAVYYCQQFSSSPWTFGQGTKVEIK
notes: Yeast-purified Fab
[1]
  Kd: 160 nM
[2]
  koff: 0.0435 s⁻¹

B19: affinity matured h34D10 Fab VH118/VL0 (Fab, V domains shown)
VH: GVQLVESGGGLVKPGGSLRLSCAASGFTFSAYAMSWVRQAPGKGLVWVASISSGGTTYYPDSVKRQFTISRDNAKNTLYLQMNSLRAEDTAVYYCTRGGDYGYALDYWGQGALVTVSS
VL: EIVMTQSPATLSVSPGERATLSCRASSSVNYMYWYQQKPGQAPRLLIYYTSNLAPGIPARFSGSGSGTEFTLTISSLQSEDFAVYYCQQFSSSPWTFGQGTKVEIK
notes: Yeast-purified Fab
[1]
  Kd: 200 nM
[2]
  koff: 0.0478 s⁻¹

B20: affinity matured h34D10 Fab VH119/VL0 (Fab, V domains shown)
VH: GVQLVESGGGLVKPGGSLRLSCAASGFTFSAYAMSWVRQAPGKGLVWVASISSGGTTYYPDSVKRQFTISRDNAKNTLYLQMNSLRAEDTAVYYCTRGGDYGYALDYWGQGTLVTVSS
VL: EIVMTQSPATLSVSPGERATLSCRASSSVNYMYWYQQKPGQAPRLLIYYTSNLAPGIPARFSGSGSGTEFTLTISSLQSEDFAVYYCQQFSSSPWTFGQGTKVEIK
notes: Yeast-purified Fab
[1]
  Kd: 140 nM
[2]
  koff: 0.0482 s⁻¹
